We go through 83 variants from the RNAGym collection of RNA variant scans (doi:10.1093/molbev/msab373).

The chains are these.
B1: Azoarcus group I ribozyme (parent)
chain: GUGCCUUGCGCCGGGAAACCACGCAAGGGAUGGUGUCAAAUUCGGCGAAACCUAAGCGCCCGCCCGGGCGUAUGGCAACGCCGAGCCAAGCUUCGGCGCCUGCGCCGAUGAAGGUGUAGAGACUAGACGGCACCCACCUAAGGCAAACGCUAUGGUGAAGGCAUAGUCCAGGGAGUGGCGAAAGUCACACAAACCGG

The variants in the data set derive from B1. Kind of data set: reverse-splicing fitness (ratio to wild type); higher = more active; in vitro selection; Mg2+ level not given. In outline: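 An in vitro group I ribozyme library with randomized positions was T7-transcribed and gel-purified. In triplicate, 10 pmol RNA in EPPS pH 7.5 was reacted with 50 pmoles of a 30-nt RNA substrate for 1 h at 37 °C across several added MgCl2 levels (1–48 mM), then stopped with EDTA. Products were reverse transcribed from a substrate-complementary primer, PCR-amplified and sequenced (HiSeq 4000). Fitness is a variant's read proportion after selection over that before, normalised to wild type.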
Consider C82A A111C A120U A145C C150U C169G, for which the reverse-splicing fitness worked out at 0.00378. The value for C82A A111C A120U A145C C150U C169A was 0.00362; that for C82A A111C A120U A145C C150U C169U was 0.00379. The value for C82A A111C A120U C150G C169G U176A was 0.00439; that for C82A A111C A120U C150G C169G U176G was 0.00279; that for C82A A111C A120U C150G C169G U176C was 0.00343. In the case of C82A A111C A120G C150A U176A it was 0.0133; in that of C82A A111C A120G C150A U176G, 0.00789; in that of C82A A111C A120G C150A U176C, 0.0233.

In the case of C82A A111C A120U A145C C150A C169U, the reverse-splicing fitness was 0.00355. Regarding C82A A111C A120U A145C C150A C169G, the reverse-splicing fitness turned out to be 0.00308. In the case of C82A A111C A120U A145C C150A C169A it was 0.00282; in that of C82A A111C A120U C150U C169U U176C, 0.00534. On to C82A A111C A120U C150U C169U U176A, for which the reverse-splicing fitness amounted to 0.00738. In the case of C82A A111C A120U C150U C169U U176G it was 0.0027; in that of C82A A111C A120U A145C C150G C169U, 0.005; in that of C82A A111C A120U A145C C150G C169G, 0.00355.

Turning to C82A A111C A120U A145C C150G C169A, the reverse-splicing fitness was found to be 0.00359. On to C82A A111C A120U A145U U176C, for which the reverse-splicing fitness amounted to 0.0103. In the case of C82A A111C A120U A145U U176A it was 0.00697; in that of C82A A111C A120U A145U U176G, 0.00339. In the case of C82A A111C A120U A145G C150U, the reverse-splicing fitness was determined as 0.0191. The value for C82A A111C A120U A145G C150G was 0.00762; that for C82A A111C A120U A145G C150A was 0.00897. For the variant C82A A111C A120U A145G C150U U176A, the reverse-splicing fitness amounted to 0.00986. Take C82A A111C A120U A145G C150U U176C: the reverse-splicing fitness worked out at 0.0108. Turning to C82A A111C A120U A145G C150U U176G, the reverse-splicing fitness worked out at 0.00369. The value for C82A A111C A120U A145C C150A C169A U176G was 0.00275. For the variant C82A A111C A120U A145C C150A C169A U176C, the reverse-splicing fitness was found to be 0.00256. In the case of C82A A111C A120U A145C C150A C169A U176A it was 0.00291. The value for C82A A111C A120G U176C was 0.0255; that for C82A A111C A120G U176A was 0.0144.

In the case of C82A A111C A120G U176G, the reverse-splicing fitness came out at 0.00584. As to C82A A111C A120U A145U C150G C169A, the reverse-splicing fitness came to 0.00497.

Consider C82A A111C A120U A145U C150G C169U, for which the reverse-splicing fitness is 0.00325. For C82A A111C A120U A145U C150G C169G, the reverse-splicing fitness is 0.00401. As for C82A A111C A120U A145U C150U C169A U176G, the reverse-splicing fitness was determined as 0.00295. Take C82A A111C A120U A145U C150U C169A U176C: the reverse-splicing fitness stood at 0.00305. In the case of C82A A111C A120U A145U C150U C169A U176A it was 0.00334.

As to C82A A111C A120U A145G C169U U176G, the reverse-splicing fitness is 0.00234. Turning to C82A A111C A120U A145G C169U U176A, the reverse-splicing fitness stood at 0.00527. In the case of C82A A111C A120U A145G C169U U176C it was 0.00417; in that of C82A A111C A120G C169G U176C, 0.0214; in that of C82A A111C A120G C169G U176G, 0.00494.

Regarding C82A A111C A120G C169G U176A, the reverse-splicing fitness was determined as 0.0165. The value for C82A A111C A120U A145U C150U U176G was 0.00353; that for C82A A111C A120U A145U C150U U176A was 0.00713; that for C82A A111C A120U A145U C150U U176C was 0.00936. Take C82A A111C A120U A145G C150A C169A U176A: the reverse-splicing fitness came out at 0.00894. In the case of C82A A111C A120U A145G C150A C169A U176G it was 0.00349; in that of C82A A111C A120U A145G C150A C169A U176C, 0.00537. Consider C82A A111C A120G C169A U176G, for which the reverse-splicing fitness was 0.00465. On to C82A A111C A120G C169A U176A, for which the reverse-splicing fitness is 0.0155. In the case of C82A A111C A120G C169A U176C it was 0.0177. Consider C82A A111C A120U A145G C169G U176A, for which the reverse-splicing fitness was 0.00381. Turning to C82A A111C A120U A145G C169G U176G, the reverse-splicing fitness is 0.00244.

Regarding C82A A111C A120U A145G C169G U176C, the reverse-splicing fitness turned out to be 0.00437.

On to C82A A111C A120G C150U C169U U176C, for which the reverse-splicing fitness came to 0.0155. C82A A111C A120G C150U C169U U176G: the reverse-splicing fitness is 0.00631. With C82A A111C A120G C150U C169U U176A, the reverse-splicing fitness amounted to 0.0157. In the case of C82A A111C A120U A145G C150G C169G U176C it was 0.00768; in that of C82A A111C A120U A145G C150G C169G U176A, 0.0101; in that of C82A A111C A120U A145G C150G C169G U176G, 0.00456. In the case of C82A A111C A120U C150U C169G U176C it was 0.00483; in that of C82A A111C A120U C150U C169G U176A, 0.00669. In the case of C82A A111C A120U C150U C169G U176G it was 0.00288.

Regarding C82A A111C A120U C150A C169G, the reverse-splicing fitness came to 0.00503. In the case of C82A A111C A120U C150A C169U it was 0.00635; in that of C82A A111C A120U C150A C169A, 0.00599.

Consider C82A A111C A120G C150A C169G U176G, for which the reverse-splicing fitness worked out at 0.00735.

Consider C82A A111C A120G C150A C169G U176C, for which the reverse-splicing fitness worked out at 0.0234. As to C82A A111C A120G C150A C169G U176A, the reverse-splicing fitness was 0.0187. With C82A A111C A120U C150G C169G, the reverse-splicing fitness was 0.0061.

In the case of C82A A111C A120U C150G C169A, the reverse-splicing fitness is 0.00857. In the case of C82A A111C A120U C150G C169U it was 0.00639. The value for C82A A111C A120U C150U U176C was 0.0107. As to C82A A111C A120U C150U U176G, the reverse-splicing fitness came out at 0.00381. As to C82A A111C A120U C150U U176A, the reverse-splicing fitness is 0.00771. In the case of C82A A111C A120U A145U C150A C169A it was 0.00298. C82A A111C A120U A145U C150A C169U: the reverse-splicing fitness came to 0.00332. The value for C82A A111C A120U A145U C150A C169G was 0.00349; that for C82A A111C A120U A145C C150A C169U U176C was 0.00283; that for C82A A111C A120U A145C C150A C169U U176A was 0.0036.
